We go through 10 molecules from patent US20120027722A1 (MEDICAL RESEARCH COUNCIL, published 2012).

Numbering of substitutions follows the chain as printed. In names and notes the source's numbering stands. Read-outs that look alike come from different tables or passages of the source. No end group written: not given here.

For experiment [1], the target named is T1, E2 peptide C2 (Hepatitis C virus, genotype 1a (Table 5), not fully specified (residue 16, C-terminus)).
T1 peptide: QLINTNGSWHVNGSGK
Kind of experiment: peptide ELISA: biotinylated peptide on streptavidin plate, COS7 supernatant, anti-human kappa HRP, OD 655 nm.

In experiment [2] the target is T2, E2 peptide B1 (Hepatitis C virus, genotype 2b (Table 5)). Described as above.
For experiment [3], the target named is T3, Peptide D3.
T3 construct: member of the group m28
The experiment is described as above.

The target in experiment [4] is T4, AP33 mimotope peptide H6.
T4 construct: captured on streptavidin plates; also called mimotope H6; H6 peptide
T4 peptide: VELRNLGGTWRPGSGK-biotin
The experiment is described as above.

In experiment [5] the target is T1, E2 peptide C2. Described as above.
For experiment [6], the target named is T2, E2 peptide B1. The description is as above. The source holds these as a separate data set.
For experiment [7], the target named is T3, Peptide D3. The description is as above. This is another data set of the same source.
Experiment [8] concerns the target T4, AP33 mimotope peptide H6. Described as above.
Experiment [9] deals with HCV E1E2 glycoproteins, genotype 3a isolate F4/2-35 (on HCVpp) (Hepatitis C virus genotype 3a (F4/2-35)). Kind of experiment: cell-based or functional assay.
The target of experiment [10] is HCV E1E2 glycoproteins, isolate 2A2.4 (on HCVpp) (Hepatitis C virus genotype 2 (2A2.4)). Kind of experiment: cell-based or functional assay.
Experiment [11] concerns the target HCV E1E2 glycoproteins, genotype 2a isolate JFH1 (on HCVpp) (Hepatitis C virus genotype 2a (JFH1), UniProt Q99IB8 192-383; Q99IB8 384-750). Kind of experiment: cell-based or functional assay.
For experiment [12], the target named is HCV E1E2 glycoproteins, isolate 4.21.16 (on HCVpp) (Hepatitis C virus genotype 4 (4.21.16)). Kind of experiment: cell-based or functional assay.
For experiment [13], the target named is HCV E1E2 glycoproteins, isolate 6.5.8 (on HCVpp) (Hepatitis C virus genotype 6 (6.5.8)). As to the kind of experiment: cell-based or functional assay.
Experiment [14] addresses T4, AP33 mimotope peptide H6. Kind of experiment: peptide ELISA: biotinylated peptide on streptavidin plate, COS7 supernatant, anti-human kappa HRP, OD 655 nm.
Experiment [15] concerns the target T4, AP33 mimotope peptide H6. Described as above.
Experiment [16] addresses T2, E2 peptide B1. The experiment is described as above. The source holds these as a separate data set.
The target of experiment [17] is T3, Peptide D3. The description is as above. This is another data set of the same source.
The target in experiment [18] is T4, AP33 mimotope peptide H6. Described as above.
Experiment [19] concerns the target T2, E2 peptide B1. The experiment is described as above. The source holds these as a separate data set.
Experiment [20] has as its target T3, Peptide D3. Described as above. The source holds these as a separate data set.
Experiment [21] has as its target T4, AP33 mimotope peptide H6. The description is as above.
The target of experiment [22] is T1, E2 peptide C2. Kind of experiment: peptide ELISA: biotinylated peptide on streptavidin plate, COS7 supernatant, normalised as percentage of H6 binding.
The target of experiment [23] is T4, AP33 mimotope peptide H6. Kind of experiment: peptide ELISA: biotinylated peptide on streptavidin plate, COS7 supernatant, anti-human kappa HRP, OD 655 nm.
For experiment [24], the target named is HCV E1E2 glycoproteins, isolate 1B5.23 (on HCVpp) (Hepatitis C virus genotype 1 (1B5.23)). Kind of experiment: cell-based or functional assay.
Experiment [25] concerns the target HCV E1E2 glycoproteins, isolate 5.15.11 (on HCVpp) (Hepatitis C virus genotype 5 (5.15.11)). Kind of experiment: cell-based or functional assay.
Experiment [26] addresses HCV E1E2 glycoproteins, isolate 2B1.1 (on HCVpp) (Hepatitis C virus genotype 2 (2B1.1)). Kind of experiment: cell-based or functional assay.
The target of experiment [27] is HCV E1E2 glycoproteins, isolate 1A20.8 (on HCVpp) (Hepatitis C virus genotype 1 (1A20.8)). As to the kind of experiment: cell-based or functional assay.
Experiment [28] deals with T2, E2 peptide B1. As to the kind of experiment: peptide ELISA, COS7 supernatants, normalized to H6 binding.
For experiment [29], the target named is T3, Peptide D3.

B1: AP33 RH-D/RK2bc (antibody, V domains shown)
VH: QVQLQESGPGLVKPSETLSLTCTVSGDSITSGYWNWIRQPPGRALEYIGYISYSGSTYYNLSLRSRITISRDTSKNQYSLRLSSVTAADTAMYYCALITTTTYAMDYWGQGTTVTVS
VL: EIVLTQSPSSLSASVGDRVTITCRASESVDGYGNSFLHWFQQKPGKAPKLLIYLASNLNSGVPSRFSGSGSRTDFTLTISSLQPEDFATYYCQQNNVDPWTFGQGTKLEIK
notes: COS7 supernatant
Turning to B1, the binding result is “binds” with E2 peptide C2 [1] and “no binding (tested: about 950 ng/ml)” with E2 peptide B1 [2]. The “EC50 (read off the curve)” value in the experiment with Peptide D3 [3] and in the experiment with AP33 mimotope peptide H6 [4] was around 0.04 µg/mL each time.

B2: humanized AP33 antibody RH-C/RK2bc (antibody, V domains shown)
VH: QVQLQESGPGLVKPSETLSLTCTVSGDSITSGYWNWIRQPPGRALEWMGYISYSGSTYYNLSLRSRITISRDTSKNQYSLRLSSVTAADTAMYYCALITTTTYAMDYWGQGTTVTVSS
VL: B1 VL
For B2, the binding result with E2 peptide C2 [5] is listed as “binds”; with E2 peptide B1 [6] it was “no binding (tested: about 2200 ng/ml)”. Further, the “EC50 (read off the curve)” value is around 0.05 µg/mL in the experiment with Peptide D3 [7] and around 0.04 µg/mL with AP33 mimotope peptide H6 [8].

B3: humanized AP33 antibody RHb-h/RK2b (antibody, V domains shown)
VH: B1 VH with I48M
VL: B1 VL with R72G
With B3, the “IC50 of HCVpp infection (Huh-7, luciferase)” value (shortened to “IC50 of HCVpp infection”) in experiment [9] is 1.15 µg/mL; in experiment [10], 1.7 µg/mL; in experiment [11], 2.7 µg/mL; in experiment [12], 0.33 µg/mL; in experiment [13] it was below 0.41 µg/mL. In addition, the “IC90 of HCVpp infection (Huh-7, luciferase)” value (“IC90 of HCVpp infection” for short) amounted to 8.3 µg/mL in [9]; 20 µg/mL in experiment [10]; 22.1 µg/mL in [11]; 3.64 µg/mL in experiment [12]; 3.7 µg/mL in experiment [13]. Besides, the “EC50 (read off the curve)” value with AP33 mimotope peptide H6 [14] is around 0.04 µg/mL.

B4: RHI/Vl (humanized heavy chain RHI with chimeric light chain) (antibody, V domains shown)
VH: B1 VH with Q39K, I48M
VL: NIVLTQSPVSLAVSLGQRATISCRASESVDGYGNSFLHWFQQKPGQPPKLLIYLASNLNSGVPARFSGSGSRTDFTLTIDPVEADDAATYYCQQNNVDPWTFGGGTKLEIK
notes: Human IgG1/kappa from vectors pG1D200 and pKN100, COS7 expression
Turning to B4, in the experiment with AP33 mimotope peptide H6 [15], the binding result was “binds”.

B5: humanized AP33 antibody RHI/RK2bc (antibody, V domains shown)
VH: B1 VH with Q39K, I48M
VL: B1 VL
notes: RHI is RHb-h with Q39K; Human IgG1/kappa from vectors pG1D200 and pKN100, COS7 expression; also called RHI (Q39K)/RK2bc
Regarding B5, the binding result with AP33 mimotope peptide H6 [15] is recorded as “binds”.

B6: humanized AP33 antibody RH-G/RK2bc (antibody, V domains shown)
VH: B1 VH with I48M, Y78F
VL: B1 VL
With B6, the values for the binding result with E2 peptide B1 [16], with Peptide D3 [17] and with AP33 mimotope peptide H6 [18] were “no binding (tested: about 750 ng/ml)”, “binds” and “binds”, respectively.

B7: AP33 RH-E/RK2bc (antibody, V domains shown)
VH: B1 VH with I48M, I67V
VL: B1 VL
notes: COS7 supernatant
Consider B7, for which the binding result is “no binding (tested: about 800 ng/ml)” with E2 peptide B1 [19], “binds” with Peptide D3 [20] and “binds” with AP33 mimotope peptide H6 [21].

B8: chimeric AP33 antibody (Vh/Vl) (antibody, V domains shown)
VH: EVQLQESGPSLVKPSQTLSLTCSVTGDSITSGYWNWIRKFPGNKLEYMGYISYSGSTYYNLSLRSRISITRDTSKNQYYLQLNSVTTEDTATYYCALITTTTYAMDYWGQGTSVTVS
VL: B4 VL
notes: also called Vh/V1; chimeric antibody
In the case of B8, the binding result in the experiment with E2 peptide C2 [22] and in the experiment with AP33 mimotope peptide H6 [23] was “binds” each time. The “IC50 of HCVpp infection” value in experiment [9] was found to be 0.48 µg/mL; in experiment [24], 1.15 µg/mL; in experiment [10] it was 0.88 µg/mL; in [25] it was 0.088 µg/mL; in [26], 3 µg/mL; in experiment [11], 1.1 µg/mL. The “IC50 of HCVpp infection” value in [12] was below 0.137 µg/mL; in experiment [13], below 0.137 µg/mL; in [27], 1.1 µg/mL. In addition, the “IC90 of HCVpp infection” value in experiment [9] was 3.2 µg/mL; in experiment [24], 11 µg/mL; in experiment [10], 6.67 µg/mL; in [25], 1.11 µg/mL; in experiment [26], above 15 µg/mL; in experiment [11], 9.31 µg/mL. Also, the entries for the “IC90 of HCVpp infection” value in [12], in experiment [13] and in experiment [27] were 0.83 µg/mL, 3.7 µg/mL and 11.5 µg/mL, respectively.

B9: chimeric AP33 heavy chain mutant Y47F with chimeric light chain Vl (antibody, V domains shown)
VH: B8 VH with Y47F
VL: B4 VL
notes: also called AP33 Y47F
On to B9, for which the binding result in the experiment with E2 peptide C2 [22] and in the experiment with E2 peptide B1 [28] was “binds” each time. The “EC50 (read off the curve)” value with Peptide D3 [29] was around 0.02 µg/mL.

B10: chimeric AP33 heavy chain mutant Y47W with chimeric light chain Vl (antibody, V domains shown)
VH: B8 VH with Y47W
VL: B4 VL
notes: also called AP33 Y47W
In the case of B10, the binding result in the experiment with E2 peptide C2 [22] and in the experiment with E2 peptide B1 [28] was “binds” in each case. In addition, in the experiment with Peptide D3 [29], the “EC50 (read off the curve)” value was around 0.03 µg/mL.
